According to PMC9557730 (2022):

B1: C-terminal 3× FLAG-tagged WT Tfb2 [Saccharomyces cerevisiae] / Ssl2 [S. cerevisiae (endogenous in yeast)] (parent complex)
chain 1: MSDYSLKHSVTQYLEEIPQQVQNRLYTSPATCLAIYRILPPLAKFFIMAMVFNENEVPLLDLDKWVNSNGKLQFQNAIKSMKSLHLLIPNKSSGTLMINLNPTFKISLRNALTGGEVQNSFGVVVEENVVSLDLLDEYSANKWETILHFMVGTPLAKIPSEKVLNLLKHSKLMEEVNSTGEFKITNEGFQFLLQEINSQLWTLLLQYLKMIETSKMDLVDVLHFIFMLGALEVGKAYKIDALSETQRIMLQDMRDYGLVFQKHSNDSIFYPTKLALMLTSDTKTIRSASNAMDSVLRQNREEPSVNEDGANGKSTTDITTSDDLNKAGLKNQDIPDGSLIVETNFKIYSYSNSPLQIAVLSLFVHLKARFVNMVLGQITRESIRRALTNGITADQIIAYLETHAHPQMRRLAEEKLEKKLELDPNCKEPLQVLPPTVVDQIRLWQLELDRVITYEGSLYSDFETSQEYNLLSKYAQDIGVLLWKDDKKKKFFISKEGNSQVLDFAKRKLKKKQ
chain 2: MTDVEGYQPKSKGKIFPDMGESFFSSDEDSPATDAEIDENYDDNRETSEGRGERDTGAMVTGLKKPRKKTKSSRHTAADSSMNQMDAKDKALLQDTNSDIPADFVPDSVSGMFRSHDFSYLRLRPDHASRPLWISPSDGRIILESFSPLAEQAQDFLVTIAEPISRPSHIHEYKITAYSLYAAVSVGLETDDIISVLDRLSKVPVAESIINFIKGATISYGKVKLVIKHNRYFVETTQADILQMLLNDSVIGPLRIDSDHQVQPPEDVLQQQLQQTAGKPATNVNPNDVEAVFSAVIGGDNEREEEDDDIDAVHSFEIANESVEVVKKRCQEIDYPVLEEYDFRNDHRNPDLDIDLKPSTQIRPYQEKSLSKMFGNGRARSGIIVLPCGAGKTLVGITAACTIKKSVIVLCTSSVSVMQWRQQFLQWCTLQPENCAVFTSDNKEMFQTESGLVVSTYSMVANTRNRSHDSQKVMDFLTGREWGFIILDEVHVVPAAMFRRVVSTIAAHAKLGLTATLVREDDKIGDLNFLIGPKLYEANWMELSQKGHIANVQCAEVWCPMTAEFYQEYLRETARKRMLLYIMNPTKFQACQFLIQYHERRGDKIIVFSDNVYALQEYALKMGKPFIYGSTPQQERMNILQNFQYNDQINTIFLSKVGDTSIDLPEATCLIQISSHYGSRRQEAQRLGRILRAKRRNDEGFNAFFYSLVSKDTQEMYYSTKRQAFLVDQGYAFKVITHLHGMENIPNLAYASPRERRELLQEVLLKNEEAAGIEVGDDADNSVGRGSNGHKRFKSKAVRGEGSLSGLAGGEDMAYMEYSTNKNKELKEHHPLIRKMYYKNLKK

Variants of: B1
Assay: FLAG IP and Western blot; whole-cell extracts; FLAG-tagged Tfb2 variants coexpressed with endogenous Tfb2; two biological replicates; read off a plot

response | Variant
~0.21 Western Signal/Tfb2-FLAG | chain 1 I378A, chain 1 T379A, chain 1 R380A
~0.11 Western Signal/Tfb2-FLAG | chain 1 E342R, chain 1 K346E
~0.23 Western Signal/Tfb2-FLAG | chain 1 I347A, chain 1 Y348A

The next lines start with the variant.

Variant | response
chain 1 L360A, chain 1 L362A, chain 1 F363A | ~0.17 Western Signal/Tfb2-FLAG
chain 1 E447K | ~0.5 Western Signal/Tfb2-FLAG
chain 1 D439A, chain 1 E447A, chain 1 R450A | ~0.58 Western Signal/Tfb2-FLAG
chain 1 Y348A, chain 1 Y350A | ~0.19 Western Signal/Tfb2-FLAG
chain 1 L339A, chain 1 I340A, chain 1 V341A | ~0.11 Western Signal/Tfb2-FLAG
chain 1 R369A, chain 1 F370A | ~0.07 Western Signal/Tfb2-FLAG
